This test concerns the target wild-type PlaF (phospholipase A1 PlaF, PA2949) from Pseudomonas aeruginosa (Pseudomonas aeruginosa). In words: cross-linking.

Data on 1 substance can be found in publication PMC10976570.

Usually stoichiometry N stands for a count of units in the complex or per binding partner. For the substance “wild-type PlaF (phospholipase A1 PlaF, PA2949) from Pseudomonas aeruginosa (enzyme)”, the more dimer in the C10-treated sample than in the untreated one came to 70% and the stoichiometry N was determined as 2.
